Laboratory results taken from US20060121535.

Assays:
[1] = biological target: T1, GST-Crkl (intra SH3), P46109
T1 chain: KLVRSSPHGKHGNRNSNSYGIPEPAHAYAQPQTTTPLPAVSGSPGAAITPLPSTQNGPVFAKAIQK

[2] = biological target: T2, Abl peptide NH2-EAIYAAPFAKKK-COOH (SEQ. ID. NO: 4), acrylic-labeled, photocleavable
T2 chain: EAIYAAPFAKKK

[3] = biological target: GST-Crkl (full length), P46109
Sequence of GST-Crkl (full length), P46109 (P46109 whole entry): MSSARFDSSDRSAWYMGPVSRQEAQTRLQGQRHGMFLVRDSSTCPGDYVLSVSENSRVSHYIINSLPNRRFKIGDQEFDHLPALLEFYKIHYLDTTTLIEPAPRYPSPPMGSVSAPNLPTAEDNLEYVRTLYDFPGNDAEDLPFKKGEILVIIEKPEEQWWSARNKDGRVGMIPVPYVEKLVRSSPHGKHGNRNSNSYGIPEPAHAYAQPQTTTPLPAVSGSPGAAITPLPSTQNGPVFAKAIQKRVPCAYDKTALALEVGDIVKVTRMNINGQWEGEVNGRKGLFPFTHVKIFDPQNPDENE

Sequence of GST-Crkl (SH3), P46109 (P46109 120-303): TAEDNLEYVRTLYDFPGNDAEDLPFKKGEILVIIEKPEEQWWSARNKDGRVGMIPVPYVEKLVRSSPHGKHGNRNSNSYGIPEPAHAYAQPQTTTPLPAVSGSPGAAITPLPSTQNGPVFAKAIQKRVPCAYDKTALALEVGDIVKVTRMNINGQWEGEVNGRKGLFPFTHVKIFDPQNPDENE

B1: v-Abl tyrosine kinase (Calbiochem / EMD Biosciences) (protein)
chain: YITPVNSLEKHSWYHGPVSRNAAEYLLSSGINGSFLVRESESSPGQRSISLRYEGRVYHYRINTASDGKLYVSSESRFNTLAELVHHHSTVADGLITTLHYPAPKRNKPTIYGVSPNYDKWEMERTDITMKHKLGGGQYGEVYEGVWKKYSLTVAVKTLKEDTMEVEEFLKEAAVMKEIKHPNLVQLLGVCTREPPFYIITEFMTYGNLLDYLRECNRQEVSAVVLLYMATQISSAMEYLEKKNFIHRDLAARNCLVGENHLVKVADFGLSRLMTGDTYTAHAGAKFPIKWTAPESLAYNKFSIKSDVWAFGVLLWEIATYGMSPYPGIDLSQVYELLEKDYRMERPEGCPEKVYELMRACWQWNPSDRPSFAEIHQAFETMFQESSISD
With B1 the “tyrosine phosphorylation of bead-immobilized substrate, anti-phosphotyrosine Western blot” value [1] was “v-Abl displays tyrosine kinase activity toward GST-Crkl (SH3) and GST-Crkl (intra SH3) in the absence of imatinib”, the “tyrosine phosphorylation on protein array, ECL, 2 h reaction” value [1] was “v-Abl demonstrates a slight preference for the GST-Crkl (SH3) substrate relative to the GST-Crkl (intra SH3) substrate” and the “tyrosine phosphorylation of bead-immobilized substrate, anti-phosphotyrosine Western blot” value (GST-Crkl (SH3), P46109) was “v-Abl displays tyrosine kinase activity toward GST-Crkl (SH3) and GST-Crkl (intra SH3) in the absence of imatinib”. For the same protein, the “tyrosine phosphorylation of surface spots, ECL film (Example 9)” value (GST-Crkl (SH3), P46109) was “Qualitative detection of phosphorylated tyrosine for the 833 and 1660 ng spots of the two larger forms of GST-Crkl can be seen”, the “tyrosine phosphorylation on protein array, ECL, 2 h reaction” value (GST-Crkl (SH3), P46109) was “v-Abl demonstrates a slight preference for the GST-Crkl (SH3) substrate relative to the GST-Crkl (intra SH3) substrate” and the “extent of phosphorylation of the immobilized peptide, MALDI mass spectrometry” value [2] was “the extent of phosphorylation was estimated to be approximately 90%”. The “tyrosine phosphorylation of bead-immobilized substrate, anti-phosphotyrosine Western blot” value [3] was “GST-Crkl (full-length) is not phosphorylated by v-Abl”, the “tyrosine phosphorylation of surface spots, ECL film (Example 9)” value [3] was “Qualitative detection of phosphorylated tyrosine for the 833 and 1660 ng spots of the two larger forms of GST-Crkl can be seen” and the “tyrosine phosphorylation on protein array, ECL” value [3] was “Phosphorylation of GST-Crkl (full-length) is minimal (data not shown)”.
